Data reported in the supplement of paper PMC7125110.
± gives the standard error. For some assays here: This sample holds only a part of the variants without activity.

B1: glmS ribozyme (parent)
chain: AUAAAAGCGCCAGAACUACAGAAAUGUAGUUGACGAGGAGGAGGUUUAUCGAAUUUUCGGCGGAUGCCUCCAAA

What was measured:
Conditions in all cases: with glucosamine-6-phosphate
glucosamine-6-phosphate [1] = variants of: B1; test: kcat; higher = faster cleavage; RNA array
Procedure, shortened: (§1)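 Weighted Michaelis–Menten fits across concentrations supplied kcat and KM, based on kobs from one- or two-exponential decay fits to normalised per-tile medians. The data came from barcoded ribozyme variants transcribed in situ by E. coli RNA polymerase on sequenced MiSeq chips and tracked at 37 °C by a hybridised Cy3 probe. Glucosamine-6-phosphate (40 μM to 10 mM) in HEPES/KCl/Mg(OAc)2 buffer was flowed in.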

glucosamine-6-phosphate [2] = variants of: B1; test: self-cleavage kobs at 40 uM GlcN6P; higher = faster cleavage; RNA array
Procedure, shortened: as §1

glucosamine-6-phosphate [3] = variants of: B1; test: self-cleavage kobs at 10000 uM GlcN6P; higher = faster cleavage; RNA array
Procedure, shortened: as §1

glucosamine-6-phosphate [4] = variants of: B1; test: self-cleavage kobs at 640 uM GlcN6P; higher = faster cleavage; RNA array
Procedure, shortened: as §1

glucosamine-6-phosphate [5] = variants of: B1; test: self-cleavage kobs at 2500 uM GlcN6P; higher = faster cleavage; RNA array
Procedure, shortened: as §1

glucosamine-6-phosphate [6] = variants of: B1; test: self-cleavage kobs at 160 uM GlcN6P; higher = faster cleavage; RNA array
Procedure, shortened: as §1

glucosamine-6-phosphate [7] = variants of: B1; test: KM; higher = weaker cofactor use; RNA array
Procedure, shortened: as §1

Variant | kcat (glucosamine-6-phosphate [1]) [s⁻¹] | self-cleavage kobs at 40 uM GlcN6P (glucosamine-6-phosphate [2]) [s⁻¹] | self-cleavage kobs at 10000 uM GlcN6P (glucosamine-6-phosphate [3]) [s⁻¹] | self-cleavage kobs at 640 uM GlcN6P (glucosamine-6-phosphate [4]) [s⁻¹] | self-cleavage kobs at 2500 uM GlcN6P (glucosamine-6-phosphate [5]) [s⁻¹] | self-cleavage kobs at 160 uM GlcN6P (glucosamine-6-phosphate [6]) [s⁻¹] | KM (glucosamine-6-phosphate [7]) [µM]
C50A G62U | < 1e-05 | < 1e-05 | < 1e-05 | – | – | – | –
A14C A52G U57G | 0.000174 ± 4.6e-05 | – | 0.000182 ± 3.1e-05 | 8.13e-05 ± 1.9e-05 | 8.49e-05 ± 2.9e-05 | – | –
C50A C68A | 3.68e-05 ± 1.1e-05 | – | – | – | 4.65e-05 ± 1.7e-05 | 3.75e-05 ± 1.4e-05 | –
A6U G66A | 0.000205 ± 1.7e-05 | – | 0.000155 ± 1.9e-05 | 3.28e-05 ± 1.3e-05 | 9.12e-05 ± 1.4e-05 | – | 3170 ± 600
U56C A64U | < 1e-05 | < 1e-05 | – | < 1e-05 | – | – | –
U30A C67A | 0.00161 ± 0.00066 | 4.92e-05 ± 9.2e-06 | 0.00131 ± 0.0002 | 0.000231 ± 4.7e-05 | 0.00102 ± 0.00018 | 0.00014 ± 3.7e-05 | –
C8A G60A | < 1e-05 | – | – | – | – | < 1e-05 | 86.3 ± 25
U46G C71A | 0.00159 ± 0.00031 | 5.65e-05 ± 1.3e-05 | 0.00143 ± 0.00019 | 0.000943 ± 0.00016 | 0.000985 ± 0.00028 | – | 935 ± 350
G38U | < 1e-05 | – | – | – | – | – | –
C58G C67G C70G | 5.76e-05 ± 2.6e-05 | – | – | 6.3e-05 ± 2.3e-05 | 8.09e-05 ± 3e-05 | – | –
U45A G59A | 0.00059 ± 0.00018 | < 1e-05 | 0.000234 ± 3.9e-05 | 2.71e-05 ± 1e-05 | 6.8e-05 ± 3.3e-05 | – | –
C16A U55G | 0.00294 ± 0.001 | 4.26e-05 ± 1.2e-05 | 0.00216 ± 0.00033 | 0.000304 ± 5.7e-05 | 0.00101 ± 0.00012 | 0.000166 ± 3.8e-05 | –
C16U G60A | 1.69e-05 ± 4.6e-06 | < 1e-05 | – | – | 2.66e-05 ± 1.3e-05 | – | –
A6C C71A | 2.27e-05 ± 4.2e-07 | – | 2.19e-05 ± 1.1e-05 | – | – | – | 205 ± 38
A6C C71G | 1.2e-05 ± 1.5e-06 | < 1e-05 | – | – | – | – | –
U47G U55C | 0.00713 ± 0.0025 | 0.000233 ± 4.3e-05 | 0.00759 ± 0.0024 | 0.00372 ± 0.00087 | 0.00386 ± 0.0012 | 0.00147 ± 0.00034 | 1030 ± 470
C10U A39U | 1.59e-05 ± 5e-07 | < 1e-05 | – | < 1e-05 | – | < 1e-05 | 6310 ± 460
A12G G13C | 2.64e-05 ± 6.5e-07 | < 1e-05 | – | – | – | < 1e-05 | 2100 ± 230
G37A G38U | < 1e-05 | – | – | – | – | < 1e-05 | –

Variant | kcat (glucosamine-6-phosphate [1]) [s⁻¹] | self-cleavage kobs at 40 uM GlcN6P (glucosamine-6-phosphate [2]) [s⁻¹] | self-cleavage kobs at 10000 uM GlcN6P (glucosamine-6-phosphate [3]) [s⁻¹] | self-cleavage kobs at 640 uM GlcN6P (glucosamine-6-phosphate [4]) [s⁻¹] | self-cleavage kobs at 2500 uM GlcN6P (glucosamine-6-phosphate [5]) [s⁻¹] | self-cleavage kobs at 160 uM GlcN6P (glucosamine-6-phosphate [6]) [s⁻¹] | KM (glucosamine-6-phosphate [7]) [µM]
G59U C61G | < 1e-05 | – | < 1e-05 | – | – | – | –
A15G G43A | 8.91e-05 ± 1.1e-05 | < 1e-05 | 7.17e-05 ± 1.4e-05 | – | 4.89e-05 ± 1.5e-05 | – | 2300 ± 940
C16G U46C | 0.000353 ± 5e-05 | – | 0.00032 ± 9e-05 | 8.24e-05 ± 2.7e-05 | 0.000169 ± 3.5e-05 | – | 2310 ± 630
A53U U54C | 0.00788 ± 0.0015 | 0.000577 ± 7.7e-05 | 0.00704 ± 0.001 | 0.00401 ± 0.00061 | 0.00897 ± 0.0018 | 0.0012 ± 0.00025 | 619 ± 200
G38C C58G C70U | < 1e-05 | – | – | – | – | – | –
A12C A48C | 0.000151 ± 3.5e-05 | – | 0.000111 ± 1.2e-05 | 3.34e-05 ± 1.1e-05 | 4.89e-05 ± 1.2e-05 | – | –
A39C G51A | < 1e-05 | – | < 1e-05 | – | < 1e-05 | – | –
A42C C70G | 4.99e-05 ± 4.3e-06 | – | 4.32e-05 ± 6.7e-06 | – | 3.37e-05 ± 7.9e-06 | – | 1410 ± 550
U49G C71A | 0.000155 ± 8.2e-06 | – | 0.000137 ± 1.9e-05 | 5.22e-05 ± 1.8e-05 | 8.83e-05 ± 2.5e-05 | – | 1460 ± 260
A48U U65G C70U | 0.00017 ± 4.1e-05 | – | 0.000132 ± 3e-05 | – | 0.000122 ± 2.8e-05 | < 1e-05 | –
A6G A42G | 0.000724 ± 0.00013 | – | 0.000569 ± 5.1e-05 | 0.000175 ± 2.3e-05 | 0.000329 ± 4.6e-05 | 2.26e-05 ± 1.1e-05 | 2730 ± 960
A12C C61A | < 1e-05 | – | < 1e-05 | – | – | – | –
G40C C70A | 0.000174 ± 1.6e-05 | – | 0.000154 ± 2.9e-05 | 0.000105 ± 1.9e-05 | 0.00016 ± 3.8e-05 | – | 516 ± 140
G37C A39U | 1.36e-05 ± 1e-06 | – | – | – | – | – | 1230 ± 450
A36C G66U | < 1e-05 | – | – | – | – | – | –
C11U U45G | 0.000317 ± 6.8e-05 | – | 0.000222 ± 4.3e-05 | – | 0.000172 ± 6.6e-05 | – | –
G29A U55G | 0.00132 ± 0.00029 | – | 0.000954 ± 0.00021 | 0.000305 ± 6.3e-05 | 0.000622 ± 0.00011 | 5.56e-05 ± 1.3e-05 | 2980 ± 960
A6U G29A | 3.18e-05 ± 3.2e-06 | < 1e-05 | 2.9e-05 ± 9.8e-06 | – | 2.95e-05 ± 1.3e-05 | – | –
